Laboratory results: patent US5747334
No end group written: not given here.

How the values were obtained:
[1] = biological target: 7E11-C5 monoclonal antibody; experiment: competitive ELISA, LNCaP extract on plate
[2] = biological target: 7E11-C5 monoclonal antibody; experiment: competitive ELISA, peptide 1.75-1130 nM pre-incubated with 7E11-C5 at 30 ng/ml (0.2 nM), LNCaP extract on plate

## LYANPGMYSRLHSPA-NH2 [peptide SEQ ID NO 31 (amide form)]
[1]
  molar ratio of peptide to monovalent binding site on the antibody at the IC50: 400
[2]
  IC50: 160 nM
